A word on the Ki: it is a measure of affinity in units of concentration, obtained from inhibition or displacement. A high value points to a looser hold on the target.

We go through three molecules from patent US20100081620A1.

Assay [1] deals with TACE catalytic domain (human) (human) (UniProt P78536). In words: cell-based or functional assay.
For assay [2], the target named is Human ADAM10 protease containing the catalytic/disintegrin domains (human) (UniProt O14672). Put plainly: cell-based or functional assay.
Sequence of Human ADAM10 protease containing the catalytic/disintegrin domains (human) (O14672 214-672 limits assumed): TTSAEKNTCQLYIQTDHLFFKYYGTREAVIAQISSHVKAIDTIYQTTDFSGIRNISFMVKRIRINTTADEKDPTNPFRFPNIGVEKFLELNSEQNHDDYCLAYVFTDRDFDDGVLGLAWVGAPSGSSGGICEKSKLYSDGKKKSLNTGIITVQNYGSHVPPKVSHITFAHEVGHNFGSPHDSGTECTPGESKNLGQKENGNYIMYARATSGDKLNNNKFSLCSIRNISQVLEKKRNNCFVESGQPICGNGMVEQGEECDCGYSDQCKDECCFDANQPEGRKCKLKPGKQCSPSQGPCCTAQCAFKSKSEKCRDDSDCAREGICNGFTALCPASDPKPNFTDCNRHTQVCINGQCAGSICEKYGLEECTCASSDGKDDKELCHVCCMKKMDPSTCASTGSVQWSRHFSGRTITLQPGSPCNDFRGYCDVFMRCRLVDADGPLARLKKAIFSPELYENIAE
For assay [3], the target named is Human TACE protease containing the catalytic/disintegrin domains (human) (UniProt P78536). Put plainly: cell-based or functional assay.
Sequence of Human TACE protease containing the catalytic/disintegrin domains (human) (P78536 215-671 limits assumed): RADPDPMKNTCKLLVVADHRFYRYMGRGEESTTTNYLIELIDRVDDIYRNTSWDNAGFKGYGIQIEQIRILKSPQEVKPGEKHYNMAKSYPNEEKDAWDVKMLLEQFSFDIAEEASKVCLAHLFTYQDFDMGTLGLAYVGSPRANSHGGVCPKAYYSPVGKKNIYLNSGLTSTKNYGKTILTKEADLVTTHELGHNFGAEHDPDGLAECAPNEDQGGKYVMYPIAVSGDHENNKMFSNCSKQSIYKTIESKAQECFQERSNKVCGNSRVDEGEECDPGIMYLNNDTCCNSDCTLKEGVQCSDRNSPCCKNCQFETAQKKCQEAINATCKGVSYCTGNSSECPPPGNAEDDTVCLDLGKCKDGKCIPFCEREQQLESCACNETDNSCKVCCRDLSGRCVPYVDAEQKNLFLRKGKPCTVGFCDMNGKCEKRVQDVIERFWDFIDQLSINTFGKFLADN
For assay [4], the target named is T1, ADAM 8 catalytic domain (mouse) (mouse) (UniProt Q05910).
T1 sequence (looked up): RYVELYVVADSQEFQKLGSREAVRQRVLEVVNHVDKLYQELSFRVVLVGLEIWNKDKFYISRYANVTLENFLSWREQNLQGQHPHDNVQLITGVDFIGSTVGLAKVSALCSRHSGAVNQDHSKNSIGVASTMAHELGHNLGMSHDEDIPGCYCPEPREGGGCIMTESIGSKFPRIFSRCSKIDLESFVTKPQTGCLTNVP
Put plainly: cell-based or functional assay.

In another assay the target is MMP 13. Put plainly: enzyme inhibition, fluorescent peptide substrate.
A further assay concerns the target MMP 2. Put plainly: enzyme inhibition, fluorescent peptide substrate.
A further assay addresses MMP 1. In words: enzyme inhibition, fluorescent peptide substrate.
The target in another assay is MMP 3. In words: enzyme inhibition, fluorescent peptide substrate.
Sequence of MMP 3 (P08254 100-477): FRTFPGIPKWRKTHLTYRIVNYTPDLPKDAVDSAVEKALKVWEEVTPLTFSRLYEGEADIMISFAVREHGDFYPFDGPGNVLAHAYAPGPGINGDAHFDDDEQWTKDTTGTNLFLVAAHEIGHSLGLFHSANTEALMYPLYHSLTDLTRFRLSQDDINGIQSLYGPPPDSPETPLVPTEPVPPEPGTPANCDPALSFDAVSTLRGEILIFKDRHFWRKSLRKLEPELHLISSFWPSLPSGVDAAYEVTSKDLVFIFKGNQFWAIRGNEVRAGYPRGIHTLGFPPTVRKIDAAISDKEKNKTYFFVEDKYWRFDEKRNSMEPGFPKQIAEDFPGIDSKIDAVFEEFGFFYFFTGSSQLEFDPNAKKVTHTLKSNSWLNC
A further assay deals with MMP 14. Put plainly: enzyme inhibition, fluorescent peptide substrate.
For a further assay, the target named is MMP 9. In words: enzyme inhibition, fluorescent peptide substrate.
Sequence of MMP 9 (P14780 107-707): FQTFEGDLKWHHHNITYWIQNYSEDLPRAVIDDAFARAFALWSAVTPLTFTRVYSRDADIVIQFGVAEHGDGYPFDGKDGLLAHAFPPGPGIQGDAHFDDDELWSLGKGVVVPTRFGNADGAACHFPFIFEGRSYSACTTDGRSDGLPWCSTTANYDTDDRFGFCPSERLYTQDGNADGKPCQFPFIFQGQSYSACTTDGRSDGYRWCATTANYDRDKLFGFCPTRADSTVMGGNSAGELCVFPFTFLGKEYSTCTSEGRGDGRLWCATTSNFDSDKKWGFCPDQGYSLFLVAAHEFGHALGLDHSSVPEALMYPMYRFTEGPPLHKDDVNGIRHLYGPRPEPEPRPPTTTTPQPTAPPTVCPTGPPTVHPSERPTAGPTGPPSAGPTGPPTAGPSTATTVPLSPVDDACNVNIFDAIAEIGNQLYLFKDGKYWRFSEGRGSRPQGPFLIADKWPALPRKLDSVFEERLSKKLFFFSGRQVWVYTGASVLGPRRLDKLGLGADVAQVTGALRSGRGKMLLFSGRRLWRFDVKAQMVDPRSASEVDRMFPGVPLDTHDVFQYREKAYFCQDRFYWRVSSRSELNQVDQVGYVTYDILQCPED

Sequence of TACE catalytic domain (human) (human) (P78536 215-477 limits assumed): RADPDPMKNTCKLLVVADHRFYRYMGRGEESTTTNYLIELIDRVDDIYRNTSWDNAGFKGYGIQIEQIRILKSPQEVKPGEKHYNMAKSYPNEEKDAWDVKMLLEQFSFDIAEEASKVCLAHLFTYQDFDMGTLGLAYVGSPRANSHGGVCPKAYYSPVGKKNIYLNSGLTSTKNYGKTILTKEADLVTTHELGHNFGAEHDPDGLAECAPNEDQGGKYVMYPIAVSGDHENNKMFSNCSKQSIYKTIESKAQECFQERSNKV
Sequence of MMP 1 (P03956 100-469): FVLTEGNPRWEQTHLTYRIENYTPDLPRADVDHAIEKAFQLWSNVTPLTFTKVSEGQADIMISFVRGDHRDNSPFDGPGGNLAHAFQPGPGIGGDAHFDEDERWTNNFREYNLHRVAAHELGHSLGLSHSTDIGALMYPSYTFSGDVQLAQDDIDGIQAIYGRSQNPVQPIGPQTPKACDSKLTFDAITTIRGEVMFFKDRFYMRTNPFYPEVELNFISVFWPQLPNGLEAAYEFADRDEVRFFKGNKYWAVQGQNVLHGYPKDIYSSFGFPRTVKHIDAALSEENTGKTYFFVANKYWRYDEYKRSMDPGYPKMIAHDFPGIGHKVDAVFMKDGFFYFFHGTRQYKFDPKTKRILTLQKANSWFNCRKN
Sequence of MMP 2 (P08253 110-660): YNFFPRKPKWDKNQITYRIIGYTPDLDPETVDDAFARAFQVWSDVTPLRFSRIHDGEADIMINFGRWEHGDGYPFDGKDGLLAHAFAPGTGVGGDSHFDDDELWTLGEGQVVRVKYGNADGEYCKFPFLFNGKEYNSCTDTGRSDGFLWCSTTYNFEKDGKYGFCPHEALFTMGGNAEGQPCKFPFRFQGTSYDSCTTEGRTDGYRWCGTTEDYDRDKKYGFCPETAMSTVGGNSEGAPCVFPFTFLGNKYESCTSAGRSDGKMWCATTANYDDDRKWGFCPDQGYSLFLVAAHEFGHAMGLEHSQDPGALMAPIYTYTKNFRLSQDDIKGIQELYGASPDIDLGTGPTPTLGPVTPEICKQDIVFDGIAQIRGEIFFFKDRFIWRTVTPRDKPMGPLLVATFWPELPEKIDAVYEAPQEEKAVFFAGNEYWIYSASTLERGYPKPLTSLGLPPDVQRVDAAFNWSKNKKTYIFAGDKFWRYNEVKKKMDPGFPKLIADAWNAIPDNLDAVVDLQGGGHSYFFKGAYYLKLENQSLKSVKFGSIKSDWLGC

B1: Pro ADAM 8 (mouse) (protein, UniProt Q05910 18-186, looked up, not shown: small tags and cut ends)
chain: GPPLPHVKQYEVVWPRRLAASRSRRALPSHWGQYPESLSYALGTSGHVFTLHLRKNRDLLGSSYTETYSAANGSEVTEQLQEQDHCLYQGHVEGYEGSAASISTCAGLRGFFRVGSTVHLIEPLDADEEGQHAMYQAKHLQQKAGTCGVKDTNLNDLGPRALEIYRAQP
B1: the prodomain inhibition of enzyme activity (percent) in assay [1] came to 50%; in [2], 25%; in assay [3], 13%; in assay [4] it was 9%.

B2: Pro ADAM 17 (mouse) (protein, UniProt Q9Z0F8 18-214, looked up, not shown: small tags and cut ends)
chain: PRPPEEAGSGSHPRLEKLDSLLSDYDILSLANIQQHSIRKRDLQSATHLETLLTFSALKRHFKLYLTSSTERFSQNLRVVVVDGKEESEYSVKWQNFFSGHVVGEPDSRVLAHIGDDDVTVRINTDGAEYNVEPLWRFVNDTKDKRMLVYKSEDIKDFSRLQSPKVCGYLNADSEELLPKGLIDREPSEEFVRRVKR
With B2, the figures for the prodomain inhibition of enzyme activity (percent) in assay [1], in [2] and in assay [4] were 37%, 11% and 17%, respectively.

B3: wt ProADAM 10 23-213 (C-terminal His tag) (protein)
chain: NPLNKYIRHYEGLSYNVDSLHQKHQRAKRAVSHEDQFLLLDFHAHGRQFNLRMKRDTSLFSDEFKVETSNKVPDYDTSHIYTGHIYGEEGSFSHGSVIDGRFEGFIKTRGGTFYIEPAERYIKDRILPFHSVIYHEDDINYPHKYGPQGGCADHSVFERMRKYQMTGVEEGARAHPEKHAASSGPELLRKKHHHHHH
B3: the Ki with MMP 13, with MMP 2, with MMP 1, in the assay with MMP 3, with MMP 14 and with MMP 9 was over 2000 nM each time.
